Data from US20230391853A1 (FAPON BIOTECH, published 2023).

Biological target: T1, 2019-nCoV N protein antigen (2019-nCoV (novel coronavirus), UniProt P0DTC9 1-419)
T1 construct: Coated on plates in ELISA; in solution in the AMC sensor assay; also called N protein of the novel coronavirus; nucleocapsid protein (N protein)
Assay: AMC sensor kinetics, antibody captured
Experimental: Operational process: equilibrium was performed in buffer 1 (PBST) for 60 s, the antibody was cured in an antibody solution for 300 s, incubation was performed in buffer 2 (PBST) for 180 s, binding was performed in an antigen solution for 420 s, dissociation was performed in buffer 2 for 1200 s, sensor regeneration was performed with a 10 mM pH 1.69 GLY solution and buffer 3, and data were outputted. KD represents an equilibrium dissociation constant, that was, the affinity; kon represents the binding rate; and kdis represents the dissociation rate.

B1: WT (antibody, mouse IgG1, kappa, V domains shown)
VH: DVQLVESGGGLVQPGGSRKLSCAASGVTFSTFAMHWVRQAPEKGLEWVAYLNSASNLIYYADTLKGRFTISRDNPKNTLFLQMTSLRSEDTAMYYCTRHAMDYWGQGTSVTVSS
VL: DIVLTQSPASLAVSLGQRATISCKASQSIDYDGDSFMNWFQQKPGQPPKLLIYDASNVESGIPARFSGSGSGTDFTLNIHPVEEEDAATYYCQHSNEDPYTFGGGTKLEIKR
notes: also called VT; antibody in Embodiment 1
Q: What does the source list for B1?
A: Kd: 8.03 nM; koff: 0.00141 s⁻¹; kon: 175000 M⁻¹ s⁻¹
